Measured values reported in patent US20150344570A1 (published 2015).

T1: FcγRIIa R (human, UniProt P12318 34-217)
T1 construct: extracellular domain; also called FcgRIIa R type; 2aR; not shown: His tag at the C terminus
T1 sequence (looked up): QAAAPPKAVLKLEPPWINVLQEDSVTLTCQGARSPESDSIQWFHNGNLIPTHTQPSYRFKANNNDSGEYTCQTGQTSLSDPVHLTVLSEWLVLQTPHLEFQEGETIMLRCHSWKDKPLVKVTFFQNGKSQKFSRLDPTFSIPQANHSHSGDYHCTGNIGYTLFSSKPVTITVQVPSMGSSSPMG

T2: FcγRIIb (human, UniProt P31994 43-217)
T2 construct: extracellular domain; also called FcgRIIb; 2b; not shown: His tag at the C terminus
T2 sequence (looked up): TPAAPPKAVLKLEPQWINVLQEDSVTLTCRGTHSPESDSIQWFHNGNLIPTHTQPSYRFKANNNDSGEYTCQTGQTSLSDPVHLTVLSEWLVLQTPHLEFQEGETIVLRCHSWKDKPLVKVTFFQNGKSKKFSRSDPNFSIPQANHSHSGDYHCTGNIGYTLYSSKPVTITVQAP

B1: GpH7-A5/GpH7-B3 variant L328_07I/GpL16-k0 (antibody, human IgG1, kappa)
heavy 1: not shown
heavy 2: not shown
light: DIVMTQSPLSLPVTPGEPASISCQASESLVHSNRNTYLHWYLQKPGQSPQLLIYKVSNRFSGVPDRFSGSGSGTDFTLKISRVEAEDVGVYYCSQNTHVPPTFGQGTKVEIERTVAAPSVFIFPPSDEQLKSGTASVVCLLNNFYPREAKVQWKVDNALQSGNSQESVTEQDSKDSTYSLSSTLTLSKADYEKHKVYACEVTHQGLSSPVTKSFNRGEC
notes: Heterodimerized anti-glypican-3 IgG1; mutation in the GpH7-B3 chain only; also called He Ab
B2: GpH7-A5/GpH7-B3 variant G237_09D/GpL16-k0 (antibody, human IgG1, kappa)
heavy 1: not shown
heavy 2: not shown
light: B1 light
notes: as for B1
B3: GpH7-A5/GpH7-B3 variant P238_15Y/GpL16-k0 (antibody, human IgG1, kappa)
heavy 1: not shown
heavy 2: not shown
light: B1 light
notes: as for B1
B4: GpH7-A5/GpH7-B3 variant G237_20W/GpL16-k0 (antibody, human IgG1, kappa)
heavy 1: not shown
heavy 2: not shown
light: B1 light
notes: as for B1
B5: GpH7-A5/GpH7-B3 variant N325_06M/GpL16-k0 (antibody, human IgG1, kappa)
heavy 1: not shown
heavy 2: not shown
light: B1 light
notes: as for B1
B6: GpH7-A5/GpH7-B3 variant H268_09D/GpL16-k0 (antibody, human IgG1, kappa)
heavy 1: not shown
heavy 2: not shown
light: B1 light
notes: as for B1
B7: GpH7-A5/GpH7-B3 variant A327_12R/GpL16-k0 (antibody, human IgG1, kappa)
heavy 1: not shown
heavy 2: not shown
light: B1 light
notes: as for B1
B8: GpH7-A5/GpH7-B3 variant P238_08L/GpL16-k0 (antibody, human IgG1, kappa)
heavy 1: not shown
heavy 2: not shown
light: B1 light
notes: as for B1
B9: GpH7-A5/GpH7-B3 variant P271_01G/GpL16-k0 (antibody, human IgG1, kappa)
heavy 1: not shown
heavy 2: not shown
light: B1 light
notes: as for B1
B10: GpH7-A5/GpH7-B3 variant N325_08L/GpL16-k0 (antibody, human IgG1, kappa)
heavy 1: not shown
heavy 2: not shown
light: B1 light
notes: as for B1
B11: GpH7-A5/GpH7-B3 variant K326_10E/GpL16-k0 (antibody, human IgG1, kappa)
heavy 1: not shown
heavy 2: not shown
light: B1 light
notes: as for B1
B12: GpH7-A5/GpH7-B3 variant P238_04F/GpL16-k0 (antibody, human IgG1, kappa)
heavy 1: not shown
heavy 2: not shown
light: B1 light
notes: as for B1
B13: GpH7-A5/GpH7-B3 variant N325_20W/GpL16-k0 (antibody, human IgG1, kappa)
heavy 1: not shown
heavy 2: not shown
light: B1 light
notes: as for B1
B14: GpH7-A5/GpH7-B3 variant A327_10E/GpL16-k0 (antibody, human IgG1, kappa)
heavy 1: not shown
heavy 2: not shown
light: B1 light
notes: as for B1
B15: GpH7-A5/GpH7-B3 variant K326_09D/GpL16-k0 (antibody, human IgG1, kappa)
heavy 1: not shown
heavy 2: not shown
light: B1 light
notes: as for B1
B16: GpH7-A5/GpH7-B3 variant P238_10E/GpL16-k0 (antibody, human IgG1, kappa)
heavy 1: not shown
heavy 2: not shown
light: B1 light
notes: as for B1
B17: GpH7-A5/GpH7-B3 variant P238_09D/GpL16-k0 (antibody, human IgG1, kappa)
heavy 1: not shown
heavy 2: not shown
light: B1 light
notes: as for B1
B18: GpH7-A5/GpH7-B3 variant Y300_05P/GpL16-k0 (antibody, human IgG1, kappa)
heavy 1: not shown
heavy 2: not shown
light: B1 light
notes: Heterodimerized IgG1 antibody; alteration in the GpH7-B3 chain only; also called He Ab

Target: T1, FcγRIIa R
Test: SPR, relative to GpH7-A5/GpH7-B3/GpL16-k0

He/Con_2aR [control = 100] | Binder
124 | B1
156 | B2
156 | B3
138 | B4
152 | B5
149 | B6
6 | B7
140 | B8
144 | B9
144 | B10
148 | B11
174 | B12
134 | B13
110 | B14
148 | B15
151 | B16
148 | B17

Target: T2, FcγRIIb
Test: SPR, relative to GpH7-A5/GpH7-B3/GpL16-k0

He/Con_2b [control = 100] | Binder
160 | B1
223 | B2
218 | B3
193 | B4
217 | B5
239 | B6
9 | B7
204 | B8
193 | B9
197 | B10
200 | B11
312 | B12
169 | B13
140 | B14
193 | B15
232 | B16
221 | B17

Target: T3, FcγRIIIa extracellular domain with C-terminal His tag (human, UniProt P08637 17-208)
T3 construct: extracellular domain; also called FcgRIIIa; 3a; not shown: His tag at the C terminus
T3 sequence (P08637 17-208): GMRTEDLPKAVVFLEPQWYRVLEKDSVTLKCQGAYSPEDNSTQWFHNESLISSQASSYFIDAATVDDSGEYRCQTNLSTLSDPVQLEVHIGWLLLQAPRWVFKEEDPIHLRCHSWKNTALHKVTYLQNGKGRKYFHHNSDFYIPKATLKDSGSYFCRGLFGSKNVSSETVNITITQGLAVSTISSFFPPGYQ
Test: SPR (Biacore); He/Con_3a divided by He/Con_2b (FcγRIIb)

He_3a/2b (IIIa/IIb) [ratio] | Binder
0.38 | B18

Target: T1, FcγRIIa R
Test: SPR; He/Con_2aR divided by He/Con_2b (FcγRIIa R over FcγRIIb)

He_2aR/2b [ratio] | Binder
0.78 | B1
0.7 | B2
0.72 | B3
0.71 | B4
0.7 | B5
0.62 | B6
0.67 | B7
0.68 | B8
0.75 | B9
0.73 | B10
0.74 | B11
0.56 | B12
0.79 | B13
0.78 | B14
0.77 | B15
0.65 | B16
0.67 | B17

Target: T3, FcγRIIIa extracellular domain with …
Test: SPR (Biacore), FcγR as analyte over captured antibody; GpH7-A5/GpH7-B3/GpL16-k0 = 100
Procedure: The heterodimerized antibodies He Abs in which one of the H chains was introduced with an alteration were assayed for their binding activities to each activating FcγR and inhibitory FcγR according to the method described in Example 4. […] The activating FcγRs in FIGS. 26, 27, 28, and 29 are FcγRIa, FcγRIIa (R), FcγRIIa (H), and FcγRIIIa, respectively.
Analysis of interaction between objective antibody and the FcγR was carried out using Biacore T100 (GE Healthcare). HBS-EP+ (GE Healthcare) was used as the running buffer, and the measurement temperature was set to 25° C. Chips produced by immobilizing the antigen peptide by the amine coupling method to a Series S Sencor Chip CM5 (GE Healthcare), or alternatively, chips produced by allowing preliminarily biotinylated antigen peptides to interact with and immobilize onto a Series S Sensor Chip SA (certified) (GE Healthcare) were used. Antibodies of interest were captured onto an antigen peptide-immobilized chip, and allowed to interact to each FcγR diluted with running buffer. To regenerate and repeatedly use the chip, the antibodies captured on the chip were washed off by reacting 10 mM glycine-HCl, pH 1.5.

He/Con_3a | Binder
2.8 % of control | B18
